# Experimental data taken from US20250250355A1.
# Biological target: human SIRPα-isoform 2-his protein (human)
# Test: indirect ELISA on coated human SIRPα-isoform 2-his, OD(450-630); negative control, curve not visible in the scan
# human SIRPα-isoform 2-his protein (human), sequence (chain, as listed by the source limits assumed): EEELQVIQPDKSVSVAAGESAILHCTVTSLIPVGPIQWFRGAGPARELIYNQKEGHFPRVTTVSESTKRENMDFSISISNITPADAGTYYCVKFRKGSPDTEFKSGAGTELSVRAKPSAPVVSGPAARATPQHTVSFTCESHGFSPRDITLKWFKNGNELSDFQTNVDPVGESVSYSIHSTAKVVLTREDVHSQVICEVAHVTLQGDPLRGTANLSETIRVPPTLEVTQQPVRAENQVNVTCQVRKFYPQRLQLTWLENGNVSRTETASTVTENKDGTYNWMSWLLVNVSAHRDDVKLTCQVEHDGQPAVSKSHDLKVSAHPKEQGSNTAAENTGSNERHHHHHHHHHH
substance,measurement,value
hIgG (antibody),EC50,18.8 nM
